From patent publication US20130011386A1

Biological target: FcγRIIIa (human) (UniProt P08637)
Experiment: cell-based or functional assay

Sequence of FcγRIIIa (human) (P08637 17-208 limits assumed): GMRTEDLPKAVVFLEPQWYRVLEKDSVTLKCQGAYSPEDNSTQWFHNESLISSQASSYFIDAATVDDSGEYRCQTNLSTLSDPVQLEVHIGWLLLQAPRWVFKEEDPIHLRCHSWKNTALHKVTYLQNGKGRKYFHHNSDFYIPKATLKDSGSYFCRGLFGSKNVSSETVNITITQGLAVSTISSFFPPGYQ

| ADCC EC50 [ng/mL] | ADCC fold (EC50 IgG1 wt/EC50 construct) [fold] | ADCC (shift in apparent EC50 against IgG1 wt), PBMC effectors, MDA-MB-231 targets [fold] | Substance |
| --- | --- | --- | --- |
| 0.31 | 15 |  | 2h F243L/R292P/Y300L (construct 7), anti-CD142 antibody |
| 0.7 |  |  | 2h S239D/H268F/S324T/I332E (construct 9), anti-CD142 antibody |
| 0.47 | 10 |  | 2h G237A/S239D/I332E (construct 12, X = A), anti-CD142 antibody |

Further lines, the substance ahead of its results:

| Substance | ADCC EC50 [ng/mL] | ADCC fold (EC50 IgG1 wt/EC50 construct) [fold] | ADCC (shift in apparent EC50 against IgG1 wt), PBMC effectors, MDA-MB-231 targets [fold] |
| --- | --- | --- | --- |
| 2h K326A/E333A (construct 11), anti-CD142 antibody | 21 | 0.2 |  |
| IgG1 wt (construct 1), anti-CD142 antibody with wild type human IgG1 constant region | 4.8 |  |  |
| 2h S239D/I332E (construct 5), anti-CD142 antibody | 0.53 | 9 | 8 |

Biological target: FcγRIIIa (human) (UniProt P08637)
Experiment: cell-based or functional assay
Remark: another data set of the same source

| ADCC EC50 [ng/mL] | ADCC fold (EC50 IgG1 wt/EC50 construct) [fold] | Substance |
| --- | --- | --- |
| 0.14 |  | 2h S239D/K326A/E333A (construct 16), anti-CD142 antibody |
| 5.6 | 0.08 | 2h S267E/I332E (construct 17), anti-CD142 antibody |
| 0.42 | 1 | IgG1 wt (construct 1), anti-CD142 antibody with wild type human IgG1 constant region |
